Test [1] concerns the target T1, IL-33 mutant protein H58A (human, UniProt O95760 112-270).
T1 construct: Prokaryotic expression
T1 chain: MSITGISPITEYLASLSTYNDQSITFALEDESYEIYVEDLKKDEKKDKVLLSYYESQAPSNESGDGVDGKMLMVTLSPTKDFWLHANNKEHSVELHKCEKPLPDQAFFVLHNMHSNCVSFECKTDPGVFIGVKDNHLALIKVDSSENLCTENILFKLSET
As to the kind of experiment: ELISA as Example 9; row H58A. As for the experimental part:
(§1) SA protein was diluted to 2 μg/mL to coat ELISA plate at 100 μL/well overnight at 4° C. The plate was washed with PBST (PBS containing 0.05% Tween20) for 3 times, and blocked with 2% BSA prepared in PBS at 200 μL/well, at room temperature for 2 h. After the plate was washed twice with PBST, IL-33-his-biotin protein was diluted to 1 μg/mL with 1% BSA prepared in PBST, and was added to ELISA plate at 100 μL/well. The plate was incubated at room temperature for 1 h, and each monoclonal antibody was diluted with 1% BSA prepared in PBST in a 3-fold gradient. The highest concentration of antibody was 10 μg/mL, and the antibody was diluted for 12 gradients. Each diluted monoclonal antibody was added to ELISA wells with 100 μL/well, and the plate was incubated at room temperature for 1 h. Each sample was added to duplicate wells in parallel. The plate was washed with PBST for 3 times, and HRP-anti human IgG Fc secondary antibody prepared with PBST was diluted at an appropriate ratio, and was added to ELISA wells at 100 μL/well. […] Each reaction solution was shaken uniformly and OD450 nm was read on a microplate reader. The data was analyzed and EC₅₀ was calculated.
(§2) Subsequently, according to the experimental method of Example 9, the affinity of the above mutant proteins to 874F7-Hu1 was determined, and IL-33 proteins (WT-1, WT-2, WT-3, and WT-4) without any mutation were set as controls.
For orientation: ELISA stands for enzyme-linked immunosorbent assay.

Test [2] addresses T2, IL-33 mutant protein K45A (human, UniProt O95760 112-270).
T2 construct: Prokaryotic expression
T2 chain: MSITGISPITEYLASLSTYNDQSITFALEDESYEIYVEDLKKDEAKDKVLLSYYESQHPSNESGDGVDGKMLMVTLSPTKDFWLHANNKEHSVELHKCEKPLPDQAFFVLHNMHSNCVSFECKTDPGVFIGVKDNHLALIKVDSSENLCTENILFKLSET
As to the kind of experiment: ELISA as Example 9; row K45A against WT-1. As for the experimental part: as §1, §2

In test [3] the target is T3, IL-33 protein without any mutation (WT) (human, UniProt O95760 112-270).
T3 construct: Control of the alanine scan (four runs WT-1 to WT-4); also called WT-1; WT-2
T3 sequence: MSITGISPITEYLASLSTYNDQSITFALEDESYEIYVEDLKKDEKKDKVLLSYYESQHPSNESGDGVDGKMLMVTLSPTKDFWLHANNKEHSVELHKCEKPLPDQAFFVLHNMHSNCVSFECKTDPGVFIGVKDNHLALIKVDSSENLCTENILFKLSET
The experiment in a line: ELISA as Example 9; row WT-1. As for the experimental part: as §1, §2

Test [4] has as its target T4, IL-33 mutant protein E55A (human, UniProt O95760 112-270).
T4 construct: Prokaryotic expression
T4 chain: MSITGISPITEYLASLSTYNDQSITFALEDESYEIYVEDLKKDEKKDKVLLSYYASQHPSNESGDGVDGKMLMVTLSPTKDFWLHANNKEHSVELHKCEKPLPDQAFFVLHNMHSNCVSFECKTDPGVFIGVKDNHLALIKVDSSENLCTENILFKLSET
As to the kind of experiment: ELISA as Example 9; row E55A. The procedure: as §1, §2

The next test has as its target T5, Human IL-33-his (human, UniProt O95760 112-270, biotinylated with EZ-Link NHS-Biotin where used as IL-33-his-biotin).
T5 construct: Used plain (SPR, cell assays) and biotinylated (ELISA); also called IL-33-his-biotin
T5 sequence: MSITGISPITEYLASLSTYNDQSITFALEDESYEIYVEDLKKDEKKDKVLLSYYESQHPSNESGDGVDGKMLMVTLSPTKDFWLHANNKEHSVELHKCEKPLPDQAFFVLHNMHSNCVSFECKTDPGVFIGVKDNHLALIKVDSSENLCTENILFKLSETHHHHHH
The experiment in a line: SPR Biacore 8K, antibody captured on Protein A/G chip, IL-33-his as analyte, 1:1 model. The procedure: A chip with covalently coupled Protein A/G (purchased from GE Healthcare, catalog number BR-1005-30) was used to capture each antibody to be tested, and the relevant operating parameters were as follows: The antibody concentration was […], the contact time was 75 s, the flow rate was […], and the regeneration contact time was 30 s. The IL-33-his antigen was diluted with HBS-EP pH7.4 buffer solution (purchased from GE Healthcare, catalog number BR-1006-69). The maximum concentration was 50 nM, and diluted to 0.39 nM by two-fold dilution. Duplicate wells and 0 concentration point well were set, and 6M guanidine hydrochloride solution was used as the regeneration buffer. The sample was injected on Biacore 8K according to the following parameters, the binding time was 180 s, the dissociation time was 900 s, the flow rate was 30 μL/min, and the regeneration contact time was 30 s. After running, Biacore 8K Evaluation Software was used to analyze the data according to the “1:1 binding kinetics model”, and the binding kinetics parameters of each antibody to IL-33 were obtained.
For orientation: Surface plasmon resonance follows binding to a sensor surface in real time, without labels.

B1: 874F7-Hu1 (antibody, human IgG4 S228P, kappa)
heavy: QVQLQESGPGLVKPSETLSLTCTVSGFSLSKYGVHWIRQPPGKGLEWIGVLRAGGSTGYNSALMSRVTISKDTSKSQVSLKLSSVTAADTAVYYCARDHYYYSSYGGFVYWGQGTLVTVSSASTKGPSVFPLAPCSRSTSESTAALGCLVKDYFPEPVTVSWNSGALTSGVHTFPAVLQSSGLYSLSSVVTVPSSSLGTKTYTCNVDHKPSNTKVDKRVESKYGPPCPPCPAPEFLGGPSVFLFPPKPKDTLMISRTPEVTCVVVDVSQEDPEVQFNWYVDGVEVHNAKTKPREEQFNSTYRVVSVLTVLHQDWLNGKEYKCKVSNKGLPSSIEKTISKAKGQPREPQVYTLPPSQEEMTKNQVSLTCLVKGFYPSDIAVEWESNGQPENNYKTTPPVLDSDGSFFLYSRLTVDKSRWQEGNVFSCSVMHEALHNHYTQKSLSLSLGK
light: DIQMTQSPSSVSASVGDRVTITCLASQTIGAWLAWYQQKPGKSPKLLIYAATRLADGVPSRFSGSGSGTDFTLTISSLQPEDFATYYCQQLDSSPYTFGQGTKVEIKRTVAAPSVFIFPPSDEQLKSGTASVVCLLNNFYPREAKVQWKVDNALQSGNSQESVTEQDSKDSTYSLSSTLTLSKADYEKHKVYACEVTHQGLSSPVTKSFNRGEC
notes: also called 874F7-Hul; humanized antibody 874F7-Hu1
On to B1, for which, in test [1], the EC50 (as a rule, the concentration needed to bring the measured effect to its halfway point) was found to be 0.43 nM. For the same molecule, the Affinity decline ratio in test [2] was above 25 fold. Also, the response in test [3] was half-maximal at 0.23 nM (EC50). Besides, in test [4], a half-maximal response (EC50) required 0.33 nM. In the test with Human IL-33-his, the Kd (in general, the concentration at which binding is half-saturated) came to 2.82 nM; the koff (in general, the rate constant with which the complex falls apart) stood at 0.00057 s⁻¹; the kon (as a rule, a measure of how fast the partners come together) came to 202000 M⁻¹ s⁻¹.

For the origin of these results see US20230399394A1 (SUNSHINE GUOJIAN PHARMACEUTICAL SHANGHAI, published 2023).
